Assay results: patent US20090156483A1 (IPSEN PHARMA S A S, published 2009)
*1 amine or outer side, *2 acyl side, *3 side chain or, on linkers, in order; H or OH if unused. Where no end group is shown, it is not given here. [ ]: non-standard residue; d: D form. The star is where a group is joined. Glu(NH-hexyl) = N5-hexyl-L-glutamine, CCCCCCNC(=O)CC[C@H](N[*:1])C(=O)[*:2]; Biotin = O=C1N[C@H]2[C@H](CS[C@H]2CCCCC(=O)*)N1; Myristoyl = CCCCCCCCCCCCCC(=O)*; Octanoyl = CCCCCCCC(=O)*; Aib = CC(C)(N)C(=O)O

Molecular target: T1, human GH secretagogue receptor (human, UniProt Q92847 1-366)
T1 construct: whole, on cells; the Ca2+ assay used the whole cells; also called hGHS-R; ghrelin receptor
Test: radioligand competition, (125I)ghrelin on membranes of CHO-K1 cells expressing hGHS-R
Experimental: Membranes for radioligand binding studies can be and were prepared by homogenization of the foregoing CHO-K1 cells expressing the human recombinant GHS receptor in about 20 ml of ice-cold 50 mM Tris-HCl with a Brinkman Polytron® (Brinkman®, Westbury, N.Y., U.S.A.) at setting 6 for about 15 seconds. The homogenates were washed twice by centrifugation (39,000 g/10 minutes) and the final pellets were resuspended in about 50 mM Tris-HCl containing 2.5 mM MgCl₂ and 0.1% bovine serum albumin (BSA). For the selected assay, aliquots of approximately 0.4 ml were incubated with 0.05 nM (¹²⁵I)ghrelin (˜2000 Ci/mmol; Perkin Elmer Life Sciences@, Boston, Mass., U.S.A.) with and without 0.05 ml of unlabeled competing test peptide. After approximately 60 minutes at 4° C., the bound (¹²⁵I)ghrelin was separated from the free ghrelin by rapid filtration through GF/C filters (available from Brandel®, Gaithersburg, Md., U.S.A.) which were pre-soaked in 0.5% polyethyleneimine/0.1% BSA. The filters were then washed 3 times with 5-ml aliquots of ice-cold 50 mM Tris-HCl and 0.1% BSA. The bound radioactivity trapped on the filters was counted by gamma spectrometry (using a spectrometer from Wallace LKB®, Gaithersburg, Md., U.S.A.). Specific binding was determined by subtracting (¹²⁵I)ghrelin bound in the presence of 1000 nM ghrelin (available from Bachem®, Torrence, Calif., U.S.A.) from the total (¹²⁵I)ghrelin bound.
A selection of the preferred embodiments was tested using the receptor binding assay discussed above and the results are reported in Table 2 presented below.

T1 sequence (Q92847 whole entry): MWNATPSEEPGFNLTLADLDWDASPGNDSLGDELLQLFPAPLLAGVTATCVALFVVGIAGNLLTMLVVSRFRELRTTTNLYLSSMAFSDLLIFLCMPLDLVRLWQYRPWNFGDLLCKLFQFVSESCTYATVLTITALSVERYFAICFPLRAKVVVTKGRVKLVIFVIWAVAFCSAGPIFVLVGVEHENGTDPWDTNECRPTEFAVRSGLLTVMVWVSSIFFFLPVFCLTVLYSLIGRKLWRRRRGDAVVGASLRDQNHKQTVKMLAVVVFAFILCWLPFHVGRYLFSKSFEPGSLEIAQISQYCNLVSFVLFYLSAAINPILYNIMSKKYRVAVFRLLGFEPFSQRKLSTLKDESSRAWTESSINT

Ki | Binder
214 nM | GXSFLSPXHQRVQQRKESKKPPAKLQPR (Aib at 2 and 8; Ser at 3 (plain, not acylated); Glu(NH-hexyl) at 17; C-terminal amide, Synthetic ghrelin analog; calculated MW 3280.91 (fits an unacylated Ser 3), found 3281.60; also called #219) [(Aib^2,8,Ser^3,Glu(NH-hexyl)^17)hGhrelin(1-28)-NH2]
24.4 nM | Ac-[Aib][Aib][Glu(NH-hexyl)]FLSPEH[Aib]RVQQRK[Glu(NH-hexyl)]SKKPPAKLQPR-NH2 (SMILES CCCCCCNC(=O)CC[C@H](NC(=O)[C@H](CCCCN)NC(=O)[C@H](CCCNC(=N)N)NC(=O)[C@H](CCC(N)=O)NC(=O)[C@H](CCC(N)=O)NC(=O)[C@@H](NC(=O)[C@H](CCCNC(=N)N)NC(=O)C(C)(C)NC(=O)[C@H](Cc1c[nH]cn1)NC(=O)[C@H](CCC(=O)O)NC(=O)[C@@H]1CCCN1C(=O)[C@H](CO)NC(=O)[C@H](CC(C)C)NC(=O)[C@H](Cc1ccccc1)NC(=O)[C@H](CCC(=O)NCCCCCC)NC(=O)C(C)(C)NC(=O)C(C)(C)NC(C)=O)C(C)C)C(=O)N[C@@H](CO)C(=O)N[C@@H](CCCCN)C(=O)N[C@@H](CCCCN)C(=O)N1CCC[C@H]1C(=O)N1CCC[C@H]1C(=O)N[C@@H](C)C(=O)N[C@@H](CCCCN)C(=O)N[C@@H](CC(C)C)C(=O)N[C@@H](CCC(N)=O)C(=O)N1CCC[C@H]1C(=O)N[C@@H](CCCNC(=N)N)C(N)=O, Synthetic ghrelin analog; calculated MW 3477.19, found 3477.40; also called #158) [(Ac-Aib^1,Aib^2,10,Glu(NH-hexyl)^3,17)hGhrelin(1-28)-NH2]
2.94 nM | GXEFLSPXHQRVQQRKESKKPPAKLQPR (N-terminal acetyl (Ac-Gly at 1); Aib at 2 and 8; Glu(NH-hexyl) at 3 and 17; C-terminal amide, Synthetic ghrelin analog; calculated MW 3448.16, found 3447.98) [(Ac-Gly^1,Aib^2,8,Glu(NH-hexyl)^3,17)hGhrelin(1-28)-NH2]
0.99 nM | Ac-G[Aib][Glu(NH-hexyl)]FLSPEH[Aib]RVQQRK[Glu(NH-hexyl)]SKKPPAKLQPR-NH2 (SMILES CCCCCCNC(=O)CC[C@H](NC(=O)[C@H](CCCCN)NC(=O)[C@H](CCCNC(=N)N)NC(=O)[C@H](CCC(N)=O)NC(=O)[C@H](CCC(N)=O)NC(=O)[C@@H](NC(=O)[C@H](CCCNC(=N)N)NC(=O)C(C)(C)NC(=O)[C@H](Cc1c[nH]cn1)NC(=O)[C@H](CCC(=O)O)NC(=O)[C@@H]1CCCN1C(=O)[C@H](CO)NC(=O)[C@H](CC(C)C)NC(=O)[C@H](Cc1ccccc1)NC(=O)[C@H](CCC(=O)NCCCCCC)NC(=O)C(C)(C)NC(=O)CNC(C)=O)C(C)C)C(=O)N[C@@H](CO)C(=O)N[C@@H](CCCCN)C(=O)N[C@@H](CCCCN)C(=O)N1CCC[C@H]1C(=O)N1CCC[C@H]1C(=O)N[C@@H](C)C(=O)N[C@@H](CCCCN)C(=O)N[C@@H](CC(C)C)C(=O)N[C@@H](CCC(N)=O)C(=O)N1CCC[C@H]1C(=O)N[C@@H](CCCNC(=N)N)C(N)=O, Synthetic ghrelin analog; calculated MW 3449.14, found 3449.20; also called #146) [(Ac-Gly^1,Aib^2,10,Glu(NH-hexyl)^3,17)hGhrelin(1-28)-NH2]
1.28 nM | Ac-G[Aib][Glu(NH-hexyl)]FLSPEH[Aib]RVQQRKK(Biotin)SKKPPAKLQPR-NH2 (SMILES CCCCCCNC(=O)CC[C@H](NC(=O)C(C)(C)NC(=O)CNC(C)=O)C(=O)N[C@@H](Cc1ccccc1)C(=O)N[C@@H](CC(C)C)C(=O)N[C@@H](CO)C(=O)N1CCC[C@H]1C(=O)N[C@@H](CCC(=O)O)C(=O)N[C@@H](Cc1c[nH]cn1)C(=O)NC(C)(C)C(=O)N[C@@H](CCCNC(=N)N)C(=O)N[C@H](C(=O)N[C@@H](CCC(N)=O)C(=O)N[C@@H](CCC(N)=O)C(=O)N[C@@H](CCCNC(=N)N)C(=O)N[C@@H](CCCCN)C(=O)N[C@@H](CCCCNC(=O)CCCC[C@@H]1SC[C@@H]2NC(=O)N[C@@H]21)C(=O)N[C@@H](CO)C(=O)N[C@@H](CCCCN)C(=O)N[C@@H](CCCCN)C(=O)N1CCC[C@H]1C(=O)N1CCC[C@H]1C(=O)N[C@@H](C)C(=O)N[C@@H](CCCCN)C(=O)N[C@@H](CC(C)C)C(=O)N[C@@H](CCC(N)=O)C(=O)N1CCC[C@H]1C(=O)N[C@@H](CCCNC(=N)N)C(N)=O)C(C)C, Synthetic ghrelin analog; calculated MW 3591.32, found 3591.50; also called #166) [(Ac-Gly^1,Aib^2,10,Glu(NH-hexyl)^3,Lys(biotinyl)^17)hGhrelin(1-28)-NH2]
0.07 nM | GSS(Octanoyl)FLSPEHQRVQQRKK(Biotin)SKKPPAKLQPR-NH2 (N-terminus assumed; SMILES CCCCCCCC(=O)OC[C@H](NC(=O)[C@H](CO)NC(=O)CN)C(=O)N[C@@H](Cc1ccccc1)C(=O)N[C@@H](CC(C)C)C(=O)N[C@@H](CO)C(=O)N1CCC[C@H]1C(=O)N[C@@H](CCC(=O)O)C(=O)N[C@@H](Cc1c[nH]cn1)C(=O)N[C@@H](CCC(N)=O)C(=O)N[C@@H](CCCNC(=N)N)C(=O)N[C@H](C(=O)N[C@@H](CCC(N)=O)C(=O)N[C@@H](CCC(N)=O)C(=O)N[C@@H](CCCNC(=N)N)C(=O)N[C@@H](CCCCN)C(=O)N[C@@H](CCCCNC(=O)CCCC[C@@H]1SC[C@@H]2NC(=O)N[C@@H]21)C(=O)N[C@@H](CO)C(=O)N[C@@H](CCCCN)C(=O)N[C@@H](CCCCN)C(=O)N1CCC[C@H]1C(=O)N1CCC[C@H]1C(=O)N[C@@H](C)C(=O)N[C@@H](CCCCN)C(=O)N[C@@H](CC(C)C)C(=O)N[C@@H](CCC(N)=O)C(=O)N1CCC[C@H]1C(=O)N[C@@H](CCCNC(=N)N)C(N)=O)C(C)C, Synthetic ghrelin analog; calculated MW 3595.27, found 3594.90; also called #78) [(Lys(biotinyl)^17)hGhrelin(1-28)-NH2]
1.68 nM | GXEFLSPEHQRVQQRKESKKPPAKLQPR (N-terminal acetyl (Ac-Gly at 1); Aib at 2; Glu(NH-hexyl) at 3 and 17; C-terminal amide, Synthetic ghrelin analog; calculated MW 3492.17, found 3492.00) [(Ac-Gly^1,Aib^2,Glu(NH-hexyl)^3,17)hGhrelin(1-28)-NH2]
0.16 nM | G[Aib]S(Octanoyl)FLSPEHQRVQQRKK(Myristoyl)SKKPPAKLQPR-NH2 (N-terminus assumed; SMILES CCCCCCCCCCCCCC(=O)NCCCC[C@H](NC(=O)[C@H](CCCCN)NC(=O)[C@H](CCCNC(=N)N)NC(=O)[C@H](CCC(N)=O)NC(=O)[C@H](CCC(N)=O)NC(=O)[C@@H](NC(=O)[C@H](CCCNC(=N)N)NC(=O)[C@H](CCC(N)=O)NC(=O)[C@H](Cc1c[nH]cn1)NC(=O)[C@H](CCC(=O)O)NC(=O)[C@@H]1CCCN1C(=O)[C@H](CO)NC(=O)[C@H](CC(C)C)NC(=O)[C@H](Cc1ccccc1)NC(=O)[C@H](COC(=O)CCCCCCC)NC(=O)C(C)(C)NC(=O)CN)C(C)C)C(=O)N[C@@H](CO)C(=O)N[C@@H](CCCCN)C(=O)N[C@@H](CCCCN)C(=O)N1CCC[C@H]1C(=O)N1CCC[C@H]1C(=O)N[C@@H](C)C(=O)N[C@@H](CCCCN)C(=O)N[C@@H](CC(C)C)C(=O)N[C@@H](CCC(N)=O)C(=O)N1CCC[C@H]1C(=O)N[C@@H](CCCNC(=N)N)C(N)=O, Synthetic ghrelin analog; calculated MW 3577.35, found 3577.2; also called #217) [(Aib^2,Lys(myristyl)^17)hGhrelin(1-28)-NH2]
0.63 nM | [Aib][Aib][Glu(NH-hexyl)]FLSPEH[Aib]RVQQRK[Glu(NH-hexyl)]SKKPPAKLQPR-NH2 (N-terminus assumed; SMILES CCCCCCNC(=O)CC[C@H](NC(=O)[C@H](CCCCN)NC(=O)[C@H](CCCNC(=N)N)NC(=O)[C@H](CCC(N)=O)NC(=O)[C@H](CCC(N)=O)NC(=O)[C@@H](NC(=O)[C@H](CCCNC(=N)N)NC(=O)C(C)(C)NC(=O)[C@H](Cc1c[nH]cn1)NC(=O)[C@H](CCC(=O)O)NC(=O)[C@@H]1CCCN1C(=O)[C@H](CO)NC(=O)[C@H](CC(C)C)NC(=O)[C@H](Cc1ccccc1)NC(=O)[C@H](CCC(=O)NCCCCCC)NC(=O)C(C)(C)NC(=O)C(C)(C)N)C(C)C)C(=O)N[C@@H](CO)C(=O)N[C@@H](CCCCN)C(=O)N[C@@H](CCCCN)C(=O)N1CCC[C@H]1C(=O)N1CCC[C@H]1C(=O)N[C@@H](C)C(=O)N[C@@H](CCCCN)C(=O)N[C@@H](CC(C)C)C(=O)N[C@@H](CCC(N)=O)C(=O)N1CCC[C@H]1C(=O)N[C@@H](CCCNC(=N)N)C(N)=O, Synthetic ghrelin analog; calculated MW 3435.16, found 3435.00; also called #70) [(Aib^1,2,10,Glu(NH-hexyl)^3,17)hGhrelin(1-28)-NH2]
0.4 nM | G[Aib][Glu(NH-hexyl)]FLSPEH[Aib]RVQQRK[Glu(NH-hexyl)]SKKPPAKLQPR-NH2 (N-terminus assumed; SMILES CCCCCCNC(=O)CC[C@H](NC(=O)[C@H](CCCCN)NC(=O)[C@H](CCCNC(=N)N)NC(=O)[C@H](CCC(N)=O)NC(=O)[C@H](CCC(N)=O)NC(=O)[C@@H](NC(=O)[C@H](CCCNC(=N)N)NC(=O)C(C)(C)NC(=O)[C@H](Cc1c[nH]cn1)NC(=O)[C@H](CCC(=O)O)NC(=O)[C@@H]1CCCN1C(=O)[C@H](CO)NC(=O)[C@H](CC(C)C)NC(=O)[C@H](Cc1ccccc1)NC(=O)[C@H](CCC(=O)NCCCCCC)NC(=O)C(C)(C)NC(=O)CN)C(C)C)C(=O)N[C@@H](CO)C(=O)N[C@@H](CCCCN)C(=O)N[C@@H](CCCCN)C(=O)N1CCC[C@H]1C(=O)N1CCC[C@H]1C(=O)N[C@@H](C)C(=O)N[C@@H](CCCCN)C(=O)N[C@@H](CC(C)C)C(=O)N[C@@H](CCC(N)=O)C(=O)N1CCC[C@H]1C(=O)N[C@@H](CCCNC(=N)N)C(N)=O, Synthetic ghrelin analog; calculated MW 3407.10, found 3407.20; also called #58) [(Aib^2,10,Glu(NH-hexyl)^3,17)hGhrelin(1-28)-NH2]
